We go through 8 molecules from patent US20240076389A1.

To fix the notation:
B1: hFc-sdAb001-DM1 (Fc fusion, not shown: a dimerising Fc or GST)
chain: QVKLEESGGGLVQAGGSLRLSCTASASISSFDIMGWYRQAPGKQRELVAAITTLDIANYRDSVKGRFTISRDNAKNTVYLQMDSLKPEDTARYHCAAFQSDQNYWGQGTQVTVSS
modifications: DM1 conjugate (SMCC linker); sites not given
B2: hFc-sdAb008-DM1 (Fc fusion, not shown: a dimerising Fc or GST)
chain: QVKLEESGGGLVQAGGSLRLSCAASGSSGMINTMGWYRQAPGKQRELVARRSTGGTTNYADSVKGRFTISRDDANNTVYLQMNSLKPEDTAVYYCAIIWRTSDLTGRFNTWGQGTQVTVSS
modifications: DM1 conjugate (SMCC linker); sites not given
B3: hFc-sdAb006-DM1 (Fc fusion, not shown: a dimerising Fc or GST)
chain: QVKLEESGGGLVQAGASLRLSCVASESIFGFNTMGWYRQAPGNERELVASISNSKRTMYADSVKGRFTISRDNAKNTVNLQMNNLKPEDTAVYYCRAWGIITSATVYWGQGTQVTVSS
modifications: DM1 conjugate (SMCC linker); sites not given
B4: hFc-sdAb005-DM1 (Fc fusion, not shown: a dimerising Fc or GST)
chain: QVKLEESGGGLAQAGGSLRLSCAASGSISSINTIGWFRQAPGKQRELVAASDSGANRNYADSVKGRFTISRDNAKNTVYLQMNNLKPEDTAIYYCRAWGTGTISTMYWGQGTQVTVSS
modifications: DM1 conjugate (SMCC linker); sites not given
B5: hFC-F107-10G1 (antibody, human IgG1, kappa, V domains shown)
VH: EVNLVESGGGVVKPGASLKLSCEASGFTFSNYGMSWVRQTSDKRLEWVASISGGGGRTYYLDNVKGRFIISRENAKNTLYLQMSSLKSEDTALFYCARGARASYFAMDYWGQGSSVTVSS
VL: VIVMTQSHKFMSTSVGDRVSITCKASQDVTTAVAWYQQKPGQSPKLLIYWASTRHTGVPDRFTGSGSGTDYSLTISNVQTEDLAFYYCQQHFTTPLTFGAGTKLELKR
B6: NRC-sdAb001-Fc (VHH-human IgG1 Fc fusion) (Fc fusion, not shown: a dimerising Fc or GST)
chain: QVKLEESGGGLVQAGGSLRLSCTASASISSFDIMGWYRQAPGKQRELVAAITTLDIANYRDSVKGRFTISRDNAKNTVYLQMDSLKPEDTARYHCAAFQSDQNYWGQGTQVTVSS
B7: NRC-sdAb002-Fc (VHH-human IgG1 Fc fusion) (Fc fusion, not shown: a dimerising Fc or GST)
chain: QVQLVDSGGGLVQAGGSLRLSCATSTRTVSSAVMAWFRQAPEKVRDFVGFITNSGNILYDDSVKGRFTISRDNAQNTVYLQMNSLKPEDTAVYYCAAKWSFSSGYGDLRRAAMYDYWGQGTQVTVSS
B8: NRC-sdAb003-Fc (VHH-human IgG1 Fc fusion) (Fc fusion, not shown: a dimerising Fc or GST)
chain: QVQLVESGGGLVQAGGSLRLSCAASGVTLDYTAIGWFRQAPGKERELVAAITSGGNTDYAESAKGRFRISRDNSKNTIYLQMNSLKPEDTGVYYCAARRGGARGEYDYWDQGTQVTVSS

Sequence of human AXL expressed on the cell surface of tumor cell lines (human) (P30530 26-894): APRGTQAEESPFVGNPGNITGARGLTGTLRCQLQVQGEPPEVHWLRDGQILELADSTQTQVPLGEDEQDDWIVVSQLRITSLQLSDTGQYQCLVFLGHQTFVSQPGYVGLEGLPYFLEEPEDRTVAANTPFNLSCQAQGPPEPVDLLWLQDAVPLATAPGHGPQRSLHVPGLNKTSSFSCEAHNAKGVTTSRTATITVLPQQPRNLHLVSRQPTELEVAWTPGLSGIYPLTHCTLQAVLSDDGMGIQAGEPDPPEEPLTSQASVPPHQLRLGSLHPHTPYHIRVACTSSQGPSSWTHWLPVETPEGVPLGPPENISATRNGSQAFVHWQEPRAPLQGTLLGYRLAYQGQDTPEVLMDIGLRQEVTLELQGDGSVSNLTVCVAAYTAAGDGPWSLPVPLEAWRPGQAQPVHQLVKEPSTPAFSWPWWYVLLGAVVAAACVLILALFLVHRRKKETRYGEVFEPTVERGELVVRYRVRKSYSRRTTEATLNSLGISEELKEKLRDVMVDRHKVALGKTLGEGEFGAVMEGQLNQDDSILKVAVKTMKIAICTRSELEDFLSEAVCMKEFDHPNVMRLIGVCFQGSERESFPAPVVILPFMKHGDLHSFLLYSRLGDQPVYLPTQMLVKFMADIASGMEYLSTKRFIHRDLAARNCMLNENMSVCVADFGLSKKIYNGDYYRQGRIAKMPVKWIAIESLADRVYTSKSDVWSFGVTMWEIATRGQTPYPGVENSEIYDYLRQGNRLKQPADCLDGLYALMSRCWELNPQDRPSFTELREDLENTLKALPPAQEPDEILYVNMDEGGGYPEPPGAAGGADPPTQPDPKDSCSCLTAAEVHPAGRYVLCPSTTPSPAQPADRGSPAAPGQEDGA
Sequence of huAXL-ECD displayed on yeast (human) (P30530 26-449, form in doubt): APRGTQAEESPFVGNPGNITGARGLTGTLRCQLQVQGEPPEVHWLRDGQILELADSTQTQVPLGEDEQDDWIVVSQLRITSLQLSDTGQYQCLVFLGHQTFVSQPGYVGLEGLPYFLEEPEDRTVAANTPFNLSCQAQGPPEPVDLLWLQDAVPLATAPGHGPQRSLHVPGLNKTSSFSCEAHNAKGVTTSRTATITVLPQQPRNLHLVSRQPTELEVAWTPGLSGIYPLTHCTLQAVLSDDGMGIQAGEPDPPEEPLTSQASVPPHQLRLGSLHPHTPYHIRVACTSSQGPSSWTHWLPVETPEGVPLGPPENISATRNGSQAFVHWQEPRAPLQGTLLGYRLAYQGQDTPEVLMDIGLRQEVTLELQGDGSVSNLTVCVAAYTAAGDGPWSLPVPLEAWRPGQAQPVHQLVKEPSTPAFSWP

The first test addresses human AXL expressed on the cell surface of tumor cell lines (human) (UniProt P30530). The test can be described thus: cell-based or functional assay.
B1 came in with an IC50 of growth inhibition (CellTiterGlo, 5 days) of NCI-H292 cells, -Gas6 of 0.887 nM.

B2 returned an IC50 of growth inhibition (CellTiterGlo, 5 days) of NCI-H292 cells, -Gas6 of 0.034 nM and an IC50 of growth inhibition of NCI-H292 cells, +Gas6 (2 µg/mL) of 0.24 nM.

Consider B3, for which the IC50 of growth inhibition (CellTiterGlo, 5 days) of NCI-H292 cells, -Gas6 amounted to 2.71 nM.

On to B4, for which the IC50 of growth inhibition (CellTiterGlo, 5 days) of NCI-H292 cells, -Gas6 is 6.66 nM and the IC50 of growth inhibition of NCI-H292 cells, +Gas6 (2 µg/mL) was found to be 3.78 nM.

The next test has as its target huAXL-ECD displayed on yeast (human) (UniProt P30530). Put plainly: yeast surface display ELISA, non-denatured yeast, goat anti-human F(ab')2-HRP. In general terms: ELISA stands for enzyme-linked immunosorbent assay.
B5 gave a yeast ELISA signal normalized to myc expression level of 1.39.

For B6, the yeast ELISA signal normalized to myc expression level turned out to be 1.03.

Consider B7, for which the yeast ELISA signal normalized to myc expression level is 0.882.

In turn, B8 gave a yeast ELISA signal normalized to myc expression level of 0.659.
